Laboratory results from patent US20120208867A1.

Legend:
[1] = molecular target: TLR-2 in which His-tag was added to the N-terminus (His-tag-added TLR-2); assay: pull-down of HMGB1 (2 ug) with His-tag-added TLR-2 (2 ug) on Co2+ agarose beads, Western blot with anti-HMGB1 antibody; tRNA added, in the presence of 1 ug of RNA aptamer R8c6_1-18 as inhibitor
[2] = molecular target: TLR-2 in which His-tag was added to the N-terminus (His-tag-added TLR-2); assay: pull-down of HMGB1 (2 ug) with His-tag-added TLR-2 (2 ug) on Co2+ agarose beads, Western blot with anti-HMGB1 antibody; lane '-': no tRNA, no RNA aptamer
[3] = molecular target: TLR-2 in which His-tag was added to the N-terminus (His-tag-added TLR-2); assay: pull-down of HMGB1 (2 ug) with His-tag-added TLR-2 (2 ug) on Co2+ agarose beads, Western blot with anti-HMGB1 antibody; tRNA added, in the presence of 2 ug of RNA aptamer R8c6_1-18 as inhibitor
[4] = molecular target: TLR-2 in which His-tag was added to the N-terminus (His-tag-added TLR-2); assay: pull-down of HMGB1 (2 ug) with His-tag-added TLR-2 (2 ug) on Co2+ agarose beads, Western blot with anti-HMGB1 antibody; lane '+': tRNA added, no RNA aptamer (reference lane, set to 100)
[5] = molecular target: TLR-2 in which His-tag was added to the N-terminus (His-tag-added TLR-2); assay: pull-down of HMGB1 (2 ug) with His-tag-added TLR-2 (2 ug) on Co2+ agarose beads, Western blot with anti-HMGB1 antibody; tRNA added, in the presence of 2 ug of 40N RNA library (comparative example)
[6] = molecular target: TLR-2 in which His-tag was added to the N-terminus (His-tag-added TLR-2); assay: pull-down of HMGB1 (2 ug) with His-tag-added TLR-2 (2 ug) on Co2+ agarose beads, Western blot with anti-HMGB1 antibody; tRNA added, in the presence of 4 ug of RNA aptamer R8c6_1-18 as inhibitor
[7] = molecular target: TLR-2 in which His-tag was added to the N-terminus (His-tag-added TLR-2); assay: pull-down of HMGB1 (2 ug) with His-tag-added TLR-2 (2 ug) on Co2+ agarose beads, Western blot with anti-HMGB1 antibody; tRNA added, in the presence of 4 ug of 40N RNA library (comparative example)
[8] = molecular target: TLR-2 in which His-tag was added to the N-terminus (His-tag-added TLR-2); assay: pull-down of HMGB1 (2 ug) with His-tag-added TLR-2 (2 ug) on Co2+ agarose beads, Western blot with anti-HMGB1 antibody; tRNA added, in the presence of 1 ug of 40N RNA library (comparative example)

Chain of TLR-2 in which His-tag was added to the N-terminus (His-tag-added TLR-2) (O60603 whole entry): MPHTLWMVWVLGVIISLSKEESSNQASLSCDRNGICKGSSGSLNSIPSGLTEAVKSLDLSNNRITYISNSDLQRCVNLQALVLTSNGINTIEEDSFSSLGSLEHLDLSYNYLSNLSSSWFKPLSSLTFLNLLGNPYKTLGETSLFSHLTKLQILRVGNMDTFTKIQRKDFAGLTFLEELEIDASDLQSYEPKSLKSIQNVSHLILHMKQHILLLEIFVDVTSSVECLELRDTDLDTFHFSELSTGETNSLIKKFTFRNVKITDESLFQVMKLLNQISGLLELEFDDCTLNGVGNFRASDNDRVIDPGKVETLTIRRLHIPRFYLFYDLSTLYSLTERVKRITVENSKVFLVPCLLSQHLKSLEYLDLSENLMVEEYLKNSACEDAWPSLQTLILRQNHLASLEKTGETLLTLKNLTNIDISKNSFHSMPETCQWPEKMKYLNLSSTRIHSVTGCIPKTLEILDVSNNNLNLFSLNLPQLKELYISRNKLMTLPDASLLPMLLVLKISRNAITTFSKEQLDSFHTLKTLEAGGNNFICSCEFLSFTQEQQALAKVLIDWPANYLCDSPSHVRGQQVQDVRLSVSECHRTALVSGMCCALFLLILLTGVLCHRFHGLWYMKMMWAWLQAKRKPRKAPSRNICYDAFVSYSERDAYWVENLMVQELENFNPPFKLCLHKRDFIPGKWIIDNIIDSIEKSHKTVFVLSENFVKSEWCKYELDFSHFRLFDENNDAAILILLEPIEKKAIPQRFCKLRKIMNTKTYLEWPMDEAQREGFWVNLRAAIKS
Chain of HMGB1 protein (High-mobility group box 1 protein) (ligand) (P09429 whole entry): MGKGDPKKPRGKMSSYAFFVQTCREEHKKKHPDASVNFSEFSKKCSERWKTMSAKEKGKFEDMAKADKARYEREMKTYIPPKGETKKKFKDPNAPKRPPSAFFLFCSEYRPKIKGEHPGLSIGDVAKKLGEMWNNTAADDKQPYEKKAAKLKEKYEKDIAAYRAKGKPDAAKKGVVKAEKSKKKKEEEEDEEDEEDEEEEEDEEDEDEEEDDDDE

HMGB1/TLR-2 (HMGB1 band corrected for TLR-2, relative to lane '+' = 100) [1]: 113
HMGB1/TLR-2 (HMGB1 band corrected for TLR-2, relative to lane '+' = 100) [2]: 60
HMGB1/TLR-2 (HMGB1 band corrected for TLR-2, relative to lane '+' = 100) [3]: 61
HMGB1/TLR-2 (HMGB1 band corrected for TLR-2, relative to lane '+' = 100) [4]: 100
HMGB1/TLR-2 (HMGB1 band corrected for TLR-2, relative to lane '+' = 100) [5]: 84
HMGB1/TLR-2 (HMGB1 band corrected for TLR-2, relative to lane '+' = 100) [6]: 29
HMGB1/TLR-2 (HMGB1 band corrected for TLR-2, relative to lane '+' = 100) [7]: 85
HMGB1/TLR-2 (HMGB1 band corrected for TLR-2, relative to lane '+' = 100) [8]: 108
Substance: HMGB1 protein (High-mobility group box 1 protein) (ligand)
